# B1: MP52: human recombinant GDF5 protein, 120 amino acid residues with alanine at the N-terminus, from Biopharm GmbH (protein, UniProt P43026 382-501, looked up)
# Growth/differentiation factor …: APLATRQGKRPSKNLKARCSRKALHVNFKDMGWDDWIIAPLEYEAFHCEGLCEFPLRSHLEPTNHAVIQTLMNSMDPESTPPTCCVPTRLSPISILFIDSANNVVYKQYEDMVVESCGCR
# B2: GDF5: growth and differentiation factor protein of the TGF-beta superfamily (literature studies) (protein, UniProt P43026 382-501, looked up)
# Growth/differentiation factor …: APLATRQGKRPSKNLKARCSRKALHVNFKDMGWDDWIIAPLEYEAFHCEGLCEFPLRSHLEPTNHAVIQTLMNSMDPESTPPTCCVPTRLSPISILFIDSANNVVYKQYEDMVVESCGCR
# B3: NBM + MP52: neurobasal medium containing MP52 at 20 nanograms/milliliter (protein, UniProt P43026 382-501, looked up)
# Growth/differentiation factor …: APLATRQGKRPSKNLKARCSRKALHVNFKDMGWDDWIIAPLEYEAFHCEGLCEFPLRSHLEPTNHAVIQTLMNSMDPESTPPTCCVPTRLSPISILFIDSANNVVYKQYEDMVVESCGCR
# modifications: in neurobasal medium, 20 ng/mL
# notes: neurobasal medium containing MP52 at 20 nanograms/milliliter
# Experiments:
# [1] = test system: adult rodent hippocampal neural progenitors; assay: Immunocytochemical staining (TuJ1, TH, GFAP) of neural progenitors after 17-day culture with growth factors; type: cell-based, rat
# Experimental: Adult rodent hippocampal neural progenitors were isolated from adult rat brain following previously published methods [Svendson et al., Nat Rev Genet., 5(2) 136-44 (2004)]. Isolated cells were seeded at 1,000 cells/cm^2 into laminin-coated 24 well tissue culture plates (Becton Dickson, Bedford, Mass.).
# Seeded cells were initially grown in a supplemented neuralbasal medium (NBM). The NBM was Neurobasal-A media (Invitrogen, Carlsbad, Calif.) with B27 supplement (Invitrogen, Carlsbad, Calif.), and L-glutamine (4 milliMolar) (Sigma, St. Louis, Mo.). Supplemented NBM also contains epidermal growth factor (EGF) (Sigma, St. Louis, Mo.), at 20 nanograms/milliliter, and basic fibroblast growth factor, (bFGF) (Peprotech, Rocky Hill, N.J.), at 20 nanograms/milliliter).
# Set one of cells was cultured in supplemented NBM for 17 days. Set two of cells was initially cultured in supplemented NBM for 4 days. The supplemented NBM then was removed from the culture plates and cells were cultured in NBM containing MP52 (Biopharm GmbH, Heidelberg, Germany) at 20 nanograms/milliliter for a period of 13 days. Set three of cells was initially cultured in supplemented NBM for 10 days. The supplemented NBM then was removed from the culture plate, and cells were cultured in NMB containing Sonic Hedgehog, (SHH) (Sigma, St. Louis, Mo.), at 200 nanograms/milliliter, and fibroblast growth factor 8 (FGF8) (Peprotech, Rocky Hill, N.J.), at 100 nanograms/milliliter. Set four of cells was initially cultured in supplemented NBM for 10 days. The supplemented NBM then was removed from the culture plates and cells were cultured in NBM containing MP52 at 20 nanograms/milliliter, SHH at 200 nanograms/milliliter, and FGF8 at 100 nanograms/milliliter).
# At the end of the 17-day experimental period, all cultures were fixed with 4 percent paraformaldehyde (Sigma, St. Louis, Mo.) and immunocytochemical staining was performed to evaluate expression of Beta Tubulin III (TuJ1), glial fibrilary acidic protein (GFAP), and tyrosine hydroxylase (TH). […]
# Following immunocytochemical staining, fluorescence was visualized using an Olympus inverted epifluorescent microscope and images were taken with a digital camera and ImagePro software (Media Cybernetics, Silver Spring, Md.). To further quantify the response, fields of cells were counted at a magnification power of 200× to examine the percentage of positive cells for each marker and compared to control samples grown in NBM alone. A minimum of 1,000 cells were counted per condition or, if less, the total number of cells observed in that condition.
# The percentage of cells positive for a given marker was determined by dividing the number of positive cells for a particular marker by the total number of nucleated cells determined by DAPI staining.
# [2] = test system: human umbilical cord cells; assay: Quantitative PCR of Nurr1 and TH mRNA in umbilical postpartum cells after dopaminergic differentiation; type: cell-based
# Experimental: Postpartum cells were isolated from an umbilical cord and placental digestion as described in U.S. patent application Ser. Nos. 10/887,012 and 10/877,446. Briefly, human umbilical cord and placental cells were isolated from explants of postpartum tissue.
# Isolated umbilical and placental cells were seeded at 1,000 cells/cm^2 into laminin coated 24 well tissue culture plates (Corning, N.Y.). Cells were initially seeded in maintenance media (control) as described in nonprov serial no. After 4 days in maintenance media, cells were split into four groups. The first set of cells was switched to NBM supplemented with EGF (20 nanograms/milliliter) and bFGF (20 nanograms/milliliter) and grown for 13 days. Sets two through four were switched to NBM supplemented with EGF (20 nanograms/milliliter) and bFGF (20 nanograms/milliliter) and grown for 6 days. The NBM supplemented with EGF and […] was then removed and cells were cultured in NBM containing; MP52 plus SHH plus FGF8 (set two); MP52 plus SHH plus FGF8 plus retinoic acid (RA) (set three); or MP52 plus RA (set four) for a further 7 days of culture.
# At the end of the 17-day experimental period, RNA was isolated from the induced cell population using an Rneasy kit (RNeasy Mini kit, Qiagen, Valencia, Calif.). […]
# [3] = test system: embryonic rat dopaminergic neurons; conditions: in vitro; cited from earlier work
# [4] = test system: adult rat nigrostriatal dopaminergic system; conditions: intraparenchymal injection; cited from earlier work
# [5] = immunostain, end of 17-day culture, positive cells / DAPI nucleated cells
molecule,measurement,setting,value
B1,"differentiation towards an astrocytic phenotype (GFAP expression), in words",[1]; immunocytochemistry,increased expression
same,"Nurr1 expression, in words","[2]; postpartum cell cultures (umbilicus and placenta), compared to control (NBM plus EGF plus FGF8)",induced
same,"Tyrosine hydroxylase (TH) expression, in words","[2]; umbilical cell cultures, compared to control",induced
same,survival-promoting action on dopaminergic neurons against MPP+,[3],survival-promoting actions
B2,protection of nigrostriatal dopaminergic system from death induced by 6OHDA lesion,[4],protects
B3,Percentage of cells staining positive for GFAP,[1]; [5],≧80%
same,Percentage of cells staining positive for TH,[1]; [5],6.1%
same,Percentage of cells staining positive for TuJ1,[1]; [5],12.5%
